Data published in US20220213163A1.

Molecular target: IL-2 receptor (IL-2R) on CTLL-2 cells
Test: cell-based or functional assay

Proleukin (recombinant human IL-2, Novartis Pharma GmbH; the Aldesleukin drug employed in the clinic) (from UniProt P60568 22-153) (ligand)
mean effective dose (ED50), CTLL-2 proliferation (MTT assay): 0.34 ng/mL
